Measurements as given in patent US20110008345A1 (GlaxoSmithKline, published 2011).
Positions count from the first letter of the chain named.

Tests used:
[1] = biological target: T1, recombinant E. coli-expressed human IL-4 (human, UniProt P05112 25-153); test: SPR
T1 construct: made and purified at GSK; also called Interleukin-4; rhIL-4
T1 sequence: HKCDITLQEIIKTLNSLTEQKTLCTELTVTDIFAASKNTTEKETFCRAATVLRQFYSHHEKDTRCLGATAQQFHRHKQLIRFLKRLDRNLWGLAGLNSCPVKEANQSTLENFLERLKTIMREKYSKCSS

[2] = biological target: T1, recombinant E. coli-expressed human IL-4; test: SPR exp 2
[3] = biological target: T1, recombinant E. coli-expressed human IL-4; test: cell-based or functional assay
[4] = biological target: T1, recombinant E. coli-expressed human IL-4; test: SPR exp 1
[5] = biological target: T1, recombinant E. coli-expressed human IL-4; test: SPR stoichiometry
[6] = biological target: T1, recombinant E. coli-expressed human IL-4; test: SPR exp 2; remark: listed apart in the source
[7] = biological target: T1, recombinant E. coli-expressed human IL-4; test: SPR exp 3
[8] = biological target: T1, recombinant E. coli-expressed human IL-4; test: SPR, purified
[9] = biological target: T1, recombinant E. coli-expressed human IL-4; test: SPR exp 1; remark: listed apart in the source
[10] = biological target: T1, recombinant E. coli-expressed human IL-4; test: SPR; remark: listed apart in the source
[11] = biological target: T2, HEL (Hen Egg Lysozyme) (hen, UniProt P00698 19-147); test: ELISA
T2 construct: also called hen egg white lysozyme
T2 sequence (P00698 19-147): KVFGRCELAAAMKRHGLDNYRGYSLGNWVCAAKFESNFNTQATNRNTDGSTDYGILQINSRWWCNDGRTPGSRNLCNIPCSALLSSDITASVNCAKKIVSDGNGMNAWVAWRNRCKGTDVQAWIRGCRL

[12] = biological target: T3, Recombinant Human HGF R (c-MET)/Fc Chimera (human, UniProt P08581 25-932); test: ELISA
T3 construct: bought; also called HGF receptor
T3 sequence (P08581 25-932 limits assumed, change not shown): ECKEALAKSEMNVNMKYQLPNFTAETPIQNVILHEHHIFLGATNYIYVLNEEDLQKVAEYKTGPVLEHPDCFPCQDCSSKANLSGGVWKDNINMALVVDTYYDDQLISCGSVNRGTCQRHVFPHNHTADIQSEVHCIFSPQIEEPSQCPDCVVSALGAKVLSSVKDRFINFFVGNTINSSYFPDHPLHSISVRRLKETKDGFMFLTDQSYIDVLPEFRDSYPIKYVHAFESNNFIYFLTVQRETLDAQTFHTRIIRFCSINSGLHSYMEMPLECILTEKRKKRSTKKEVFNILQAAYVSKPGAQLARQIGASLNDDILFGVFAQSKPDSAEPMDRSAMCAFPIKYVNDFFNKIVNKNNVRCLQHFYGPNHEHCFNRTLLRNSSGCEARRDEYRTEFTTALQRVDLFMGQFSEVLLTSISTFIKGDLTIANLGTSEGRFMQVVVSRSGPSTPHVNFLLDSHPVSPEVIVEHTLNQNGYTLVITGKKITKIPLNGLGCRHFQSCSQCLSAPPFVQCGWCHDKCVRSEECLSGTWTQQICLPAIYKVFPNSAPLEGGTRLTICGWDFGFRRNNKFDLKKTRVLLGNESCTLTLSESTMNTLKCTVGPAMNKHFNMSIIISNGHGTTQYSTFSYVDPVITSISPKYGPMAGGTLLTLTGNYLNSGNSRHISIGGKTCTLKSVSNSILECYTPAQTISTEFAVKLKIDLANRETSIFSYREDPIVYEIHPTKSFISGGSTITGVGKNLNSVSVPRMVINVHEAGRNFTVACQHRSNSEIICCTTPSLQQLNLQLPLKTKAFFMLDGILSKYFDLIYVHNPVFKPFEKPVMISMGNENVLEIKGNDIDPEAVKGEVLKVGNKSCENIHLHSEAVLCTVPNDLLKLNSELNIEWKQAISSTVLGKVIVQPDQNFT

[13] = biological target: recombinant human TNF-alpha (human, UniProt P01375 77-233); test: ELISA
[14] = biological target: recombinant Sf21-expressed human IL-5 (human, UniProt P05113 20-134); test: ELISA
[15] = biological target: T4, recombinant human VEGF (human, UniProt P15692-4 27-191); test: ELISA
T4 construct: also called VEGF165; hVEGF165

[16] = biological target: T5, recombinant human IL-12 (human, UniProt P29459 23-219; P29460 23-328); test: ELISA
T5 sequence (looked up) 1: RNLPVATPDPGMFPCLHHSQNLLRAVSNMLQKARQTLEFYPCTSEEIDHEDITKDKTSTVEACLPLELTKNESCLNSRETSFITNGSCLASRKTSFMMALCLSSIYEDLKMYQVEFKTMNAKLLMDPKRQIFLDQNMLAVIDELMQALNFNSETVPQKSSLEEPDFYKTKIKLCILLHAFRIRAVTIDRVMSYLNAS
T5 sequence (looked up) 2: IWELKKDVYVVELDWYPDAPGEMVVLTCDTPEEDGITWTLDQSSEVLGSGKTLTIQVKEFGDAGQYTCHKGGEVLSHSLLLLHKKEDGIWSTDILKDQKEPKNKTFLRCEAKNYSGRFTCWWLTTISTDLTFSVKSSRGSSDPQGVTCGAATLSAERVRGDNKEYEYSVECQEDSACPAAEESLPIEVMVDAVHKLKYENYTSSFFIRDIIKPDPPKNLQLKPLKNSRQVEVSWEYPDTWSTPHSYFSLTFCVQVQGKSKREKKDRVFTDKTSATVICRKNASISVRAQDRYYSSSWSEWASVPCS

[17] = biological target: recombinant E. coli-expressed human IL-18 (human, UniProt Q14116 37-193); test: ELISA
[18] = biological target: T6, RNAse A (UniProt P61823 27-150); test: ELISA
T6 sequence (looked up): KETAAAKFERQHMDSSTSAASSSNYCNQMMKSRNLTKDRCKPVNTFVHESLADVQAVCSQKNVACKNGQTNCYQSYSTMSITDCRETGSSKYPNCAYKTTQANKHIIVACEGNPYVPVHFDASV

[19] = biological target: T1, recombinant E. coli-expressed human IL-4; test: SPR exp 2; remark: listed apart in the source
[20] = biological target: T1, recombinant E. coli-expressed human IL-4; test: ELISA, IL-4 binding to IL4Ralpha-Fc
[21] = biological target: T7, recombinant E. coli-expressed human IL-13 (human, UniProt P35225 35-146); test: SPR
T7 construct: made and purified at GSK; also called Interleukin-13; rhIL-13

[22] = biological target: T1, recombinant E. coli-expressed human IL-4; test: SPR; remark: listed apart in the source
[23] = biological target: T1, recombinant E. coli-expressed human IL-4; test: SPR, purified; remark: listed apart in the source
[24] = biological target: T1, recombinant E. coli-expressed human IL-4; test: SPR; remark: listed apart in the source
[25] = biological target: T1, recombinant E. coli-expressed human IL-4; test: SPR exp 1; remark: listed apart in the source
[26] = biological target: T8, recombinant E. coli-expressed cynomolgus IL-4 (cynomolgus, UniProt P79339 25-153); test: cell-based or functional assay
T8 sequence (looked up): T1 sequence with E26K, V29I, F33L

[27] = biological target: T1, recombinant E. coli-expressed human IL-4; test: cell-based or functional assay; remark: listed apart in the source
[28] = biological target: T9, recombinant E. coli-expressed cynomolgus IL-13 (cynomolgus, UniProt Q0PW92 21-132); test: SPR
T9 construct: also called cyno IL-13

[29] = biological target: T8, recombinant E. coli-expressed …; test: SPR

B1: Pascolizumab (Anti-human IL-4 monoclonal antibody) (antibody, human IgG1, kappa, V domains shown)
VH: QVTLRESGPALVKPTQTLTLTCTFSGFSLSTSGMGVSWIRQPPGKGLEWLAHIYWDDDKRYNPSLKSRLTISKDTSRNQVVLTMTNMDPVDTATYYCARRETVFYWYFDVWGRGTLVTVSS
VL: DIVLTQSPSSLSASVGDRVTITCKASQSVDYDGDSYMNWYQQKPGKAPKLLIYAASNLESGIPSRFSGSGSGTDFTFTISSLQPEDIATYYCQQSNEDPPTFGQGTKVEIKR
notes: also called anti-human IL4 mAb; IL-4 mAb
Kd [1]: 20 pM
Kd [2]: 60 pM
koff [2]: 0.000123 s⁻¹
kon [2]: 2.04e+06 M⁻¹ s⁻¹
Mean IC50 (whole blood phospho-STAT6) [3]: 2440 pM
Kd [4]: 30 pM
koff [4]: 0.00016 s⁻¹
kon [4]: 5.3e+06 M⁻¹ s⁻¹
Stoichiometry [5]: 1.8
Kd [6]: 11 pM
Kd [7]: 13 pM
Kd [8]: 30 pM
Kd [9]: 13.7 pM
Kd [10]: 5.72 pM
koff [10]: 2.43e-05 s⁻¹
kon [10]: 4.25e+06 M⁻¹ s⁻¹
binding result [11]: no binding
binding result [12]: no binding
binding result [13]: no binding (tested: 1 ug/ml)
binding result [14]: no binding
binding result [15]: no binding
binding result [16]: no binding
binding result [17]: no binding
binding result [18]: no binding (tested: 2 ug/mL)
Kd [19]: 11 pM
IC50 [20]: 3450 pM
binding result [21]: no binding
Kd [22]: 60 pM
koff [22]: 0.000123 s⁻¹
kon [22]: 2.04e+06 M⁻¹ s⁻¹
Kd [23]: 37 pM
Kd [24]: 37 pM
Kd [25]: 13.7 pM
Mean ND50 (TF-1) [26]: 2.62 nM
Mean ND50 (TF-1) [27]: 1.36 nM
binding result [28]: no binding
Kd [29]: 46 pM
koff [29]: 0.000108 s⁻¹
kon [29]: 2.34e+06 M⁻¹ s⁻¹
